Test results as given in patent publication US20160136234A1.

What was measured:
Assay in all cases: cell-based or functional assay
Met(D1246H) (h) (human) = Met(D1246H) (h) (human) (UniProt P08581)
FGFR1(V561M) (h) (human) = FGFR1(V561M) (h) (human) (UniProt P11362)
GSK3α (h) (human) = GSK3α (h) (human) (UniProt P49840)
Abl (M351T) (h) (human) = Abl (M351T) (h) (human) (UniProt P00519)
DCAMKL2 (h) (human) = molecular target: T1, DCAMKL2 (h) (human) (UniProt Q8N568)
T1 sequence (looked up): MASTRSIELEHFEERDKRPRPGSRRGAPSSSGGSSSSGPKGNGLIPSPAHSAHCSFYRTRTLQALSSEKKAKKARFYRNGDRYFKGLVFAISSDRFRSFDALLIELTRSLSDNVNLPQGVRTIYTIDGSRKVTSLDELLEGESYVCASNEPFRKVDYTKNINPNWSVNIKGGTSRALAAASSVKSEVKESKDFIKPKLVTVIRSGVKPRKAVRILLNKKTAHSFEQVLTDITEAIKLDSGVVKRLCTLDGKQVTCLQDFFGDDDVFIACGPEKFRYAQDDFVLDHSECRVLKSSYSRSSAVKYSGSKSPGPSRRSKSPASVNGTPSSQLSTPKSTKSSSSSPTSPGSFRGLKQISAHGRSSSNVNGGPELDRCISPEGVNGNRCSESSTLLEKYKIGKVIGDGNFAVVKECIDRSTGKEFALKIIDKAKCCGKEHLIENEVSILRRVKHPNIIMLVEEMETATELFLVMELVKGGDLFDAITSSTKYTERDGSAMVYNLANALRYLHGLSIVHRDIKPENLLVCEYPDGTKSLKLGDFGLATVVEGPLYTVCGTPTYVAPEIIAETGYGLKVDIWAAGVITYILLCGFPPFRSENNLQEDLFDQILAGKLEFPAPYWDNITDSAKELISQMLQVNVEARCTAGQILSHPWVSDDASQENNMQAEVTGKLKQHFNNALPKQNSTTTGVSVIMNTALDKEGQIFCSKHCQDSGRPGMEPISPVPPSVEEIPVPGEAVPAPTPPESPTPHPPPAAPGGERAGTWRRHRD

Yes (h) (human) = Yes (h) (human) (UniProt P07947)
Met(M1268T) (h) (human) = Met(M1268T) (h) (human) (UniProt P08581)
PKCε (h) (human) = PKCε (h) (human) (UniProt Q02156)
EGFR(L861Q) (h) (human) = EGFR(L861Q) (h) (human) (UniProt P00533)
NEK6 (h) (human) = NEK6 (h) (human) (UniProt Q9HC98)
LOK (h) (human) = LOK (h) (human) (UniProt O94804)
DDR2 (h) (human) = molecular target: T2, DDR2 (h) (human) (UniProt Q16832)
T2 sequence (looked up): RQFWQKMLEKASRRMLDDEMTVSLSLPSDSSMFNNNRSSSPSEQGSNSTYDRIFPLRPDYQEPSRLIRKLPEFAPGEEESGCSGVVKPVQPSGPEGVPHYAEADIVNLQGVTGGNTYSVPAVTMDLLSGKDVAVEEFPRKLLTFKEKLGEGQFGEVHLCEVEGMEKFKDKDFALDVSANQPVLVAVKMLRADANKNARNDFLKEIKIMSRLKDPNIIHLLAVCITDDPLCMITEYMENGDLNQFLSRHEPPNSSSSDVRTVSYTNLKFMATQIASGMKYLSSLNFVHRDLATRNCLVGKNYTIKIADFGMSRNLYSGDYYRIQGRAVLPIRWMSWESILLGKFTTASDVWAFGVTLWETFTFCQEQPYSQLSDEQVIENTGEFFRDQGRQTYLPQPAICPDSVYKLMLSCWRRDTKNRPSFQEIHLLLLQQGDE

Mer (h) (human) = molecular target: T3, Mer (h) (human) (UniProt Q12866)
T3 sequence (looked up): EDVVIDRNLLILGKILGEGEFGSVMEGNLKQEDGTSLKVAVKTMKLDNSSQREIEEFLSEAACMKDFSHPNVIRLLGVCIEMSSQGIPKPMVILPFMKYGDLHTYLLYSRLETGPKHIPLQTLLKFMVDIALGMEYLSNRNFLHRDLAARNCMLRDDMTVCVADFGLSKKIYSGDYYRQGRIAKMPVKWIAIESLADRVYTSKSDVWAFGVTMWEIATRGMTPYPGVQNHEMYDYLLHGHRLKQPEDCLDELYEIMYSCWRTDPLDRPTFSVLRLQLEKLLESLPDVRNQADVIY

PKBβ (h) (human) = PKBβ (h) (human) (UniProt P31751)
Chain of PKBβ (h) (human) (P31751 whole entry): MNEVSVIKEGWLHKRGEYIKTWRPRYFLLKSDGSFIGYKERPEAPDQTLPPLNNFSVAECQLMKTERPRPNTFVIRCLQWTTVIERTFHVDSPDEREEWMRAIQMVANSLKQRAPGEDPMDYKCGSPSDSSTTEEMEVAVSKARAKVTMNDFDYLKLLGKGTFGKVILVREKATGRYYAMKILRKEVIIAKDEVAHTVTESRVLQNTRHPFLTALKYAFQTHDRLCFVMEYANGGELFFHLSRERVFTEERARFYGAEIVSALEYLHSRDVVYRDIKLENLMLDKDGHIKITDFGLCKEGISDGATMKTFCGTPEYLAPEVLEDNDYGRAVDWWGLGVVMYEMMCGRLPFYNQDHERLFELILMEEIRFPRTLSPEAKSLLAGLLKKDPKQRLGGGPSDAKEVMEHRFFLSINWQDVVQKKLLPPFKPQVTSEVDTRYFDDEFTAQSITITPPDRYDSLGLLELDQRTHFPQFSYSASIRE

CDK3/cyclinE (h) (human) = CDK3/cyclinE (h) (human) (UniProt Q00526)
SRPK1 (h) (human) = SRPK1 (h) (human) (UniProt Q96SB4)
Ros (h) (human) = Ros (h) (human) (UniProt P08922)
Chain of Ros (h) (human) (P08922 1883-2347 limits assumed): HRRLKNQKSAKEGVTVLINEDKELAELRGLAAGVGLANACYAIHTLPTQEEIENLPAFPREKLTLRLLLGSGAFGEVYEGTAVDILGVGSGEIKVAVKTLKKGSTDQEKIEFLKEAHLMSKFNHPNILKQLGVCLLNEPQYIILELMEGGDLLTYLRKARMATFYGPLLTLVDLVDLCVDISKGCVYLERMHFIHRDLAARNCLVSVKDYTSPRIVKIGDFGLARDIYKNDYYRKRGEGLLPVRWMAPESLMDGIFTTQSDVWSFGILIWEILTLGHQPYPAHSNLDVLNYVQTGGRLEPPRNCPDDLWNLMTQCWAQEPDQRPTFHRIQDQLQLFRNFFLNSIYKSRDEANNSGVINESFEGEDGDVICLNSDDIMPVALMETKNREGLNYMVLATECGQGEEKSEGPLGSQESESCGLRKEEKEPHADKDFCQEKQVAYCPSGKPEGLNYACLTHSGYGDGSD

MST2 (h) (human) = molecular target: T4, MST2 (h) (human) (UniProt Q13188)
T4 sequence (looked up): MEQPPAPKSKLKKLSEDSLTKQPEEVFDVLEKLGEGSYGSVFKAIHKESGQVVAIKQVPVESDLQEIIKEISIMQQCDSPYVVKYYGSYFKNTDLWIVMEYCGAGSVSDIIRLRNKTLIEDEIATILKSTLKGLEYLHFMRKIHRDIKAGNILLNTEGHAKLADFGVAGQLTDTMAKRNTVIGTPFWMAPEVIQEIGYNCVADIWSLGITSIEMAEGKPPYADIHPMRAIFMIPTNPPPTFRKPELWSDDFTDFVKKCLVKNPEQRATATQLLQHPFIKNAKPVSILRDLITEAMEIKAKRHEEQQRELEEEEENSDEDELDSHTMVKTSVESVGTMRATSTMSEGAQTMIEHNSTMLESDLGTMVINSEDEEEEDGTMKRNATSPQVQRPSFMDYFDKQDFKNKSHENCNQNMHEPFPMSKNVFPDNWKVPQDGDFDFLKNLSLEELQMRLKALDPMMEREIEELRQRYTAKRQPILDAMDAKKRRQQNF

Chain of FGFR1(V561M) (h) (human) (P11362 456-765 V561M limits assumed): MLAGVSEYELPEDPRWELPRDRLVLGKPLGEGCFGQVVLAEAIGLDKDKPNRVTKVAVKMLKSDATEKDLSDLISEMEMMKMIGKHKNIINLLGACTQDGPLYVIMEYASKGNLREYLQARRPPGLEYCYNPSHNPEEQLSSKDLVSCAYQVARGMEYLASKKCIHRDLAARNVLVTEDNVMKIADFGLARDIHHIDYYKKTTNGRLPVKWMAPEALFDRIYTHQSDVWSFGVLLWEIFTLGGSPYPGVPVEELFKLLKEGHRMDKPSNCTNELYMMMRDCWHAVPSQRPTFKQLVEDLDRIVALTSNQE
Chain of Abl (M351T) (h) (human) (P00519 27-1130 M351T limits assumed): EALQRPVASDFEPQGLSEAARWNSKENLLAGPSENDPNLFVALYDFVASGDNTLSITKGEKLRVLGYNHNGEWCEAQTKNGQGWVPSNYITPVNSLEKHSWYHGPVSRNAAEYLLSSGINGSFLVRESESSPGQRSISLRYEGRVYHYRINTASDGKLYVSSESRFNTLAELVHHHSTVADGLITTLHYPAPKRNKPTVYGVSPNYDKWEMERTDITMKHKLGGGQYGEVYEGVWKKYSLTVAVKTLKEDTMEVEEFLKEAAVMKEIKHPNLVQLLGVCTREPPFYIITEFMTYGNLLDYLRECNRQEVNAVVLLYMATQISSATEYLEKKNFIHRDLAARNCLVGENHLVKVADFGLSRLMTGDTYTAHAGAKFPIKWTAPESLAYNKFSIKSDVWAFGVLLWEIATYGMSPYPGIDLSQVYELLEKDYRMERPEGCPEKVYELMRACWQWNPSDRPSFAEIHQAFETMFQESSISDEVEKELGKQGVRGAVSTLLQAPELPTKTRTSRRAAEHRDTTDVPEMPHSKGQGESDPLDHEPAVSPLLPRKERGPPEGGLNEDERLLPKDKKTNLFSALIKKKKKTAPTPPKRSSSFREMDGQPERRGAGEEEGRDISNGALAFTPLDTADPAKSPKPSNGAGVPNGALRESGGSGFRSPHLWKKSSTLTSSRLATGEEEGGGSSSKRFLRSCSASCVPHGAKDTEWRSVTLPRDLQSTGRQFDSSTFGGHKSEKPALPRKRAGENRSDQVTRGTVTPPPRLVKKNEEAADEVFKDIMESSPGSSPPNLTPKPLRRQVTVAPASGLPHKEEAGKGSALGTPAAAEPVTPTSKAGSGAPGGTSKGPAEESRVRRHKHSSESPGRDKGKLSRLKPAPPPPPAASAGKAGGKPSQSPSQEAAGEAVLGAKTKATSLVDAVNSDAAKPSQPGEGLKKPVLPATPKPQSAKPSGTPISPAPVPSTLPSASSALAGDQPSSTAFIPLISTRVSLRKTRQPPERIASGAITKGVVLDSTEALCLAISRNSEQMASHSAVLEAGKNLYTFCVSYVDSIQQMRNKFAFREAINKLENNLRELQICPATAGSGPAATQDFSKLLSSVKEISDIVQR

% activity at 100 µM (Met(D1246H) (h) (human)): 125%
% activity at 100 µM (FGFR1(V561M) (h) (human)): 74%
% activity at 100 µM (GSK3α (h) (human)): 157%
% activity at 100 µM (Abl (M351T) (h) (human)): 90%
% activity at 100 µM (DCAMKL2 (h) (human)): 81%
% activity at 100 µM (Yes (h) (human)): 67%
% activity at 100 µM (Met(M1268T) (h) (human)): 255%
% activity at 100 µM (PKCε (h) (human)): 79%
% activity at 100 µM (EGFR(L861Q) (h) (human)): 25%
% activity at 100 µM (NEK6 (h) (human)): 82%
% activity at 100 µM (LOK (h) (human)): 37%
% activity at 100 µM (DDR2 (h) (human)): 94%
% activity at 100 µM (Mer (h) (human)): 52%
% activity at 100 µM (PKBβ (h) (human)): 84%
% activity at 100 µM (CDK3/cyclinE (h) (human)): 94%
% activity at 100 µM (SRPK1 (h) (human)): 90%
% activity at 100 µM (Ros (h) (human)): 95%
% activity at 100 µM (MST2 (h) (human)): 19%
Substance: MMI-0300 (peptide)
